Laboratory results reported in article PMC8830681, “Circadian control of heparan sulfate levels times phagocytosis of amyloid beta aggregates” (PLoS Genetics, 2022).
Ends that are not written are not given here.

B1: Heparinase III: Recombinant Flavobacterial heparin lyase III; cleaves in low or unsulfated regions of HSPGs (protein, UniProt Q59289 25-659, looked up)
Heparin-sulfate lyase: QSSSITRKDFDHINLEYSGLEKVNKAVAAGNYDDAAKALLAYYREKSKAREPDFSNAEKPADIRQPIDKVTREMADKALVHQFQPHKGYGYFDYGKDINWQMWPVKDNEVRWQLHRVKWWQAMALVYHATGDEKYAREWVYQYSDWARKNPLGLSQDNDKFVWRPLEVSDRVQSLPPTFSLFVNSPAFTPAFLMEFLNSYHQQADYLSTHYAEQGNHRLFEAQRNLFAGVSFPEFKDSPRWRQTGISVLNTEIKKQVYADGMQFELSPIYHVAAIDIFLKAYGSAKRVNLEKEFPQSYVQTVENMIMALISISLPDYNTPMFGDSWITDKNFRMAQFASWARVFPANQAIKYFATDGKQGKAPNFLSKALSNAGFYTFRSGWDKNATVMVLKASPPGEFHAQPDNGTFELFIKGRNFTPDAGVFVYSGDEAIMKLRNWYRQTRIHSTLTLDNQNMVITKARQNKWETGNNLDVLTYTNPSYPNLDHQRSVLFINKKYFLVIDRAIGEATGNLGVHWQLKEDSNPVFDKTKNRVYTTYRDGNNLMIQSLNADRTSLNEEEGKVSYVYNKELKRPAFVFEKPKKNAGTQNFVSIVYPYDGQKAPEISIRENKGNDFEKGKLNLTLTINGKQQLVLVP
B2: Heparinase II: Recombinant Flavobacterial heparin lyase II; cleaves in both high- and low-sulfated positions (protein, UniProt C6XZB6 26-772, looked up)
Heparin and heparin-sulfate …: QTKADVVWKDVDGVSMPIPPKTHPRLYLREQQVPDLKNRMNDPKLKKVWADMIKMQEDWKPADIPEVKDFRFYFNQKGLTVRVELMALNYLMTKDPKVGREAITSIIDTLETATFKPAGDISRGIGLFMVTGAIVYDWCYDQLKPEEKTRFVKAFVRLAKMLECGYPPVKDKSIVGHASEWMIMRDLLSVGIAIYDEFPEMYNLAAGRFFKEHLVARNWFYPSHNYHQGMSYLNVRFTNDLFALWILDRMGAGNVFNPGQQFILYDAIYKRRPDGQILAGGDVDYSRKKPKYYTMPALLAGSYYKDEYLNYEFLKDPNVEPHCKLFEFLWRDTQLGSRKPDDLPLSRYSGSPFGWMIARTGWGPESVIAEMKVNEYSFLNHQHQDAGAFQIYYKGPLAIDAGSYTGSSGGYNSPHNKNFFKRTIAHNSLLIYDPKETFSSSGYGGSDHTDFAANDGGQRLPGKGWIAPRDLKEMLAGDFRTGKILAQGFGPDNQTPDYTYLKGDITAAYSAKVKEVKRSFLFLNLKDAKVPAAMIVFDKVVASNPDFKKFWLLHSIEQPEIKGNQITIKRTKNGDSGMLVNTALLPDAANSNITSIGGKGKDFWVFGTNYTNDPKPGTDEALERGEWRVEITPKKAAAEDYYLNVIQIADNTQQKLHEVKRIDGDKVVGVQLADRIVTFSKTSETVDRPFGFSVVGKGTFKFVMTDLLPGTWQVLKDGKILYPALSAKGDDGALYFEGTEGTYRFLR
B3: Heparinase I: Recombinant Flavobacterial heparin lyase I; cleaves in highly sulfated regions of HSPGs (protein, UniProt Q05819 22-384, looked up)
Heparin lyase I: QQKKSGNIPYRVNVQADSAKQKAIIDNKWVAVGINKPYALQYDDKLRFNGKPSYRFELKAEDNSLEGYAAGETKGRTELSYSYATTNDFKKFPPSVYQNAQKLKTVYHYGKGICEQGSSRSYTFSVYIPSSFPDNATTIFAQWHGAPSRTLVATPEGEIKTLSIEEFLALYDRMIFKKNIAHDKVEKKDKDGKITYVAGKPNGWKVEQGGYPTLAFGFSKGYFYIKANSDRQWLTDKADRNNANPENSEVMKPYSSEYKTSTIAYKMPFAQFPKDCWITFDVAIDWTKYGKEANTILKPGKLDVMMTYTKNKKPQKAHIVNQQEILIGRNDDDGYYFKFGIYRVGNSTVPVTYNLSGYSETAR

Experiments:
[1] = test system: bone-marrow derived macrophages (BMDMs) from Per2::Luc C57BL/6J mice; experiment: Phagocytosis assay of HiLyte 488 labeled amyloid-beta by serum-shock synchronized macrophages (with or without heparinases); type: cell-based, mouse; details: for circadian oscillation of the peptide's own phagocytosis (in words): HiLyte 488 labeled peptide, 2 h uptake, mAβ42 every 4 h for 24 h (ECHO), Aβ40 at PS20 and PS32; for Hedges' g, phagocytosis vs Aβ42-alone at PS20 (nadir, CT8) / Hedges' g, phagocytosis vs Aβ42-alone at PS32 (zenith, CT20): >100 cells per replicate, g >0.2 small, >0.5 medium, >0.8 large effect; for Hedges' g, phagocytosis PS20 vs PS32 within the same treatment: for heparinases: Aβ42 phagocytosis in their presence; for effect of heparinase treatment on the daily oscillation of Aβ42 phagocytosis (in words): heparinase added immediately before HiLyte 488 Aβ42, cells sampled 2 h later
Description: To do so, we modified a previously-employed BMDM phagocytosis assay (as BMDMs are both models for activated microglia and are known to migrate into the brain in late-stage AD), to use fluorescently labeled Aβ42 to determine if the phagocytosis of Aβ42 is controlled by the circadian clock. In brief, BMDMs were derived from bone marrow progenitor cells extracted from Per2::Luc C57BL/6J mice and differentiated with recombinant Macrophage Colony Stimulating Factor (M-CSF), with flow cytometry confirming complete differentiation into naïve peripheral macrophages. […] 16 h after synchronization, confluent dishes of these BMDMs were treated HiLyte 488 labeled Aβ42 (Anaspec), in triplicate, every 4 h over a 24 h circadian period. BMDMs treated with labeled Aβ42 were harvested two hours after Aβ42 treatment and fixed with formalin. Total cellular fluorescence levels were analyzed with fluorescent confocal microscopy and quantified using a custom cell measurement MATLAB script (Fig 1A, S2 Fig, and S1 Table).
Bone marrow was harvested from the femurs and tibias of one 3–6-month-old male mouse using a 26 g needle and syringe filled with DMEM supplemented media. ACK lysing buffer (Lonza 10-548E) was used to lyse red blood cells in order to prevent erythrocyte contamination. Filtered bone marrow cells were counted using a BioRad TC20 automated cell counter and plated on 35 mm cell culture plates at a density of 1 x 10^6 in macrophage differentiation media. After three days of incubation at 37°C with 5% CO2, fresh macrophage differentiation media was added. After another 3 days of incubation, the cells were washed with 2 ml warm PBS per plate, and replaced with macrophage assay media, and the cultures were incubated for 24 h. Macrophage cultures were then washed with 2 ml warm PBS, macrophage serum starvation media was added, and the plates were incubated in the starve media for 24 h. Next, macrophage serum starvation media was removed, and macrophage serum shock media was added, and cultures were incubated for 2 h. Macrophage cultures were then washed with 2 ml warmed PBS each and macrophage media Luciferin was added. Cultures were sealed with grease and glass cover slips and placed in a LumiCycle 32 luminometer (Actimetrics) to confirm synchronization of circadian rhythmicity. Assays began 16 h post serum shock to allow the synchronized cells to return to homeostasis.
All amyloid-beta isoforms were reconstituted 24 h or less before experimentation in water and PBS (1:1) and were dissolved using sonication for approximately 30 min. The reconstituted Aβ was pooled from individual vials before aliquoting for each experimental replicate. The aliquots were then flash frozen and stored at -80°C until 20 min before use.
Using synchronized macrophages (as described above) starting at PS16 macrophages were treated every 4 h for 24 h, in triplicate, with 115 μl (0.25 mg/ml) of fluorescently labeled amyloid-beta (PS16, PS20, PS24, PS28, PS32, PS36, and PS40) and heparinases at the reported activity levels (S5 Table). The treated macrophages were then incubated at 37°C for 2 h. Following the two-hour incubation, the media was aspirated, and the macrophages were washed with 2ml of PBS three times before Cell Stripper (Corning 25-056-CI) was added to the cultures, which were then incubated at 37°C for 3 min. Detached macrophages were next centrifuged at 400 g for 5 min, the supernatant was aspirated, and the macrophage cell pellets were resuspended in formalin and incubated in the dark at room temperature for 30 min. Macrophages were then centrifuged for 5 min at 400 g, the supernatant was aspirated, and the macrophages were resuspended in 250 μL of PBS and kept at 4°C. The fixed macrophages were imaged using fluorescent microscopy within a week of the experiment. All fluorescent images from the phagocytosis experiments are available on Mendeley Data (doi: 10.17632/zrmgjyggmr.1). […]

[2] = Heparinase enzymatic activity; type: biochemical
Description: We hypothesized that the rhythmic oscillation of HSPGs may inhibit the phagocytosis of Aβ42 due to the antiphase relationship between Aβ42 phagocytosis and PG levels and the published repressive effect of HSPGs on Aβ42 phagocytosis (Figs 1 and 4). To validate this hypothesis, we individually purified Heparinases I, II, and III, removed endotoxins, and confirmed Heparinase enzymatic activity (see Methods) (S5 Table). Heparinase I cleaves between D-glucosamine and L-iduronic acid in highly sulfated regions, heparinase III cleaves between N-acetyl-D-glucosamine in low or unsulfated regions, and heparinase II cleaves in both positions. We then extracted, derived, synchronized, and exposed BMDMs to fluorescently-labeled Aβ42 every 4 h over one circadian day. We next added a mixture of Heparinase I, II, and III to cleave all forms of HSPGs, with each biological replicate receiving a decreasing concentration of total heparinases (Replicate 1: 0.9577mg/ml of total heparinases, Replicate 2: 0.5071 mg/ml of total heparinases, Replicate 3: 0.2794 mg/ml of total heparinases) of the mixture of the three heparinases (see S5 Table). Immediately following the addition of the heparinases, we added fluorescently labeled Aβ42 and sampled Aβ42 levels inside the cell 2 hours later. By using fluorescently labeled Aβ42, we controlled for endogenously generated Aβ, which can be affected by HSPG expression through its interaction with BACE1 processing of the amyloid precursor protein [67].
Heparinases were prepared as has been previously reported. All heparinases used were purified away from endotoxins using an Endotoxin Removal Kit from GenScript (L00338).

[3] = log10 mean cell fluorescence, triplicate
[4] = heparinase stock of the 'All Hep' experiment
[5] = heparinase stock of the 'Hep I only' / 'Hep III only' experiments

Molecule	Oscillation Type ([1]; ECHO v4.1 fit, average of 3 replicates, log10 mean cell fluorescence, 2 h uptake every 4 h PS16-PS40, WT Per2::Luc BMDMs)	circadian oscillation of the peptide's own phagocytosis (in words) ([1]; triplicate)	phagocytosis compared to human Aβ42 (in words) ([1]; every 4 h for 24 h, triplicate)	Hedges' g, phagocytosis vs Aβ42-alone at PS20 (nadir, CT8) [1, 3]	Hedges' g, phagocytosis vs Aβ42-alone at PS32 (zenith, CT20) [1, 3]	Hedges' g, total phagocytosis of Aβ40 vs Aβ42 at PS20 and PS32 [1, 3]	Hedges' g, phagocytosis PS20 vs PS32 within the same treatment [1, 3]	effect of heparinase treatment on the daily oscillation of Aβ42 phagocytosis (in words) ([1]; triplicate)	Activities (U/ml) [2, 4] [U/ml]	Activities (U/ml) [2, 5] [U/ml]
Mouse amyloid-beta 42 labeled with HiLyte 488 (DAEFGHDSGFEVRHQKLVFFAEDVGSNKGAIIGLMVGGVVIA; also: HiLyte 488 label, site not given here; UniProt P12023 672-713, looked up) [mAβ42, custom mouse Aβ42 labeled with HiLyte 488 from Anaspec (SQ-ANCPXXXX)]	Harmonic	did not have a circadian oscillation	increased phagocytosis compared to human Aβ42 phagocytosis at all sampled times	3.032	2.021					
Amyloid-beta 40 labeled with HiLyte 488 [Aβ40]		no oscillation in Aβ40 phagocytosis				0.2752	0.06734			
B1				0.5409	0.22		0.1663	oscillations in Aβ42 phagocytosis were also ablated	20.212	5.305
B2									1.048	
B3				0.1328	0.635		0.1017	loss of daily oscillation	0.034	0.332
